Experiment [1] deals with T1, Cyno B7H6-His (cynomolgus monkey).
T1 construct: also called CyB7H6; cyB7-H6
T1 chain: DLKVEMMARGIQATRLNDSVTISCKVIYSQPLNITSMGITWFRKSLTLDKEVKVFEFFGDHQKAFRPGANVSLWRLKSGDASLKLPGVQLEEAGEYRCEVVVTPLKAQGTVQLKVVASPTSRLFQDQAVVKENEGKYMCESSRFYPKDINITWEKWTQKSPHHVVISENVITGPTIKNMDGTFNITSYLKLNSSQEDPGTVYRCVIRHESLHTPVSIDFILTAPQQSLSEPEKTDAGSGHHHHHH
Nature of the experiment: ratio of SPR KDs cyno/human. How it is done: (§1) About 700 RU of the B7H6/CD3 binding protein was captured on flow cell 2 of the Protein A/G surface for 60 s at a flow rate of 10 μL/min. The analytes HuB7H6, CyB7H6 and HuB7H1 were injected across both flow cells over captured B7H6/CD3 binding protein for 300 s at a flow rate of 30 μL/min with a dissociation of 1200 s. The concentrations of HuB7H6 and CyB7H6 were 0 nM, 6.25 nM, 12.5 nM, 25 nM, 50 nM and 100 nM. The concentrations of HuB7H1 were 0 nM and 1 μM. The surface was regenerated by injecting 10 mM glycine-HCl, pH 1.5 for 20 s at a flow rate of 30 μL/min across both flow cells.
(§2) The reference flow cell 1 (interactions with sensor surface) and blank (HBS-EP+ or 0 nM analyte) were subtracted from the raw data.
(§3) The B7H6/CD3 binding protein analyte was injected horizontally over the immobilized surface for 300 s at a flow rate of 30 μL/min with a dissociation of 600 s. The concentrations of the B7H6/CD3 binding protein used were 0 nM, 1.2 nM, 3.7 nM, 11.1 nM, 33.3 nM and 100 nM.

In experiment [2] the target is T2, chicken egg white lysozyme (chicken, UniProt P00698 19-147).
T2 construct: unrelated positively charged protein, amine-coupled to the chip; also called Lysozyme (positive)
Nature of the experiment: SPR, 1 µM binder over immobilized lysozyme. How it is done: (§4) The experiment was performed on a Biacore® T200 SPR system (GE Healthcare Life Sciences). The dilution, surface preparation, and binding experiments were performed at 25° C. in 1×HBS-EP buffer prepared from 10×HBS-EP. The flow rate for both the immobilization protocol and binding experiment was at 5 μL/min.
(§5) To prepare the surface for the non-specific binding experiment, chicken egg white lysozyme and trypsin inhibitor from Glycine max soybean were coupled manually to a Biacore® series S CM5 sensor chip (GE Healthcare sciences) with the surface density of 3000-5000 RU using the amine coupling kit according to the manufacture instructions. Samples were prepared at 1 μM in 1×HBS-EP buffer. The samples were injected over activated surfaces with a 10 min association and 15 min dissociation. The data was collected using Biacore® T200 Control Software version 2.0.1 and analyzed using Biacore® T200 Evaluation Software version 3.0 (GE Healthcare Life Sciences).

The next experiment deals with T3, Human CD3 E+G HuFc-6xHis (human).
T3 construct: also called HuCD3E+G-hFc; huCD3
Nature of the experiment: SPR, CD3E+G-hFc immobilized, binder analyte. Here is the method:
To determine the affinity of the B7H6/CD3 binding protein to human and cyno CD3E+G-hFc, the experiment was performed on a Bio-Rad ProteOn™ XPR36 instrument. Briefly, HuCD3E+G-hFc and CyCD3E+G were amine-coupled on a ProteOn™ GLM sensor chip (Bio-Rad) and the B7H6/CD3 binding protein was flowed over the immobilized surface. The running buffer for this experiment and all serial dilutions were prepared in HBS-EP+. The GLM sensor chip was normalized according to Bio-Rad's recommendations. The sensor chip was activated with an equal mixture of EDC/s-NHS in the horizontal direction for 300 s at a flow rate of 30 μL/min HuCD3E+G-hFc was immobilized in the vertical direction at 0.4 μg/mL, 0.2 μg/mL and 0.1 μg/mL in 10 mM acetate pH 4.5 to L1, L2 and L3, respectively, for 300 s at a flow rate of 30 μL/min resulting in about 100 RU of HuCD3E+G-hFc on L1, 40 RU of HuCD3E+G-hFc on L2 and 0 RU of HuCD3E+G-hFc on L3. CyCD3E+G-hFc was immobilized in the vertical direction at 0.4 μg/mL, 0.2 μg/mL and 0.1 μg/mL in 10 mM acetate pH 4.5 to L4, L5 and L6, respectively, for 300 s at a flow rate of 30 μL/min resulting in about 385 RU of […], 170 RU of CyCD3E+G-hFc on L5 and 50 RU of CyCD3E+G-hFc on L6. The sensor chip was deactivated with 1M ethanolamine-HCl in the horizontal direction for 300 s at a flow rate of 30 μL/min.
as §3
The interspot (interactions with sensor surface) and blank (HBS-EP+ or 0 nM analyte) were subtracted from the raw data.

Experiment [3] concerns the target T1, Cyno B7H6-His. Nature of the experiment: SPR, binder captured on Protein A/G, B7H6 analyte. Here is the method:
(§6) To determine the affinity of human and cyno B7H6 and human B7H1 to B7H6/CD3 binding proteins, the experiment was performed on a Biacore™ 8K instrument (GE Healthcare Life Sciences). Briefly, the B7H6/CD3 binding protein was captured via Protein A/G. The running buffer for this experiment and all serial dilutions were prepared in HBS-EP+. The CM5 sensor chip was activated with an equal mixture of EDC/NHS across both flow cells for 420 s at a flow rate of 10 μL/min and immobilized with recombinant Protein A/G (50 μg/ml in 10 mM NaOAc, pH 4.5) across all flow cells for 420 s at a flow rate of 10 μL/min resulting in about 2500 RU of Protein A/G on the surface. The sensor chip was deactivated with 1M ethanolamine-HCl across all flow cells for 420 s at a flow rate of 10 μL/min.
as §1, §2

The target of a further experiment is T4, Human B7H1 (human, UniProt Q9NZQ7 20-239).
T4 construct: also called HuB7H1; huB7-H1
Nature of the experiment: SPR, binder captured on Protein A/G, HuB7H1 analyte. How it is done: as §6, §1, §2

The target in experiment [4] is T5, trypsin inhibitor from Glycine max soybean (Glycine max (soybean)).
T5 construct: unrelated negatively charged protein, amine-coupled to the chip
Nature of the experiment: SPR, 1 µM binder over immobilized trypsin inhibitor. How it is done: as §4, §5

Substitutions are numbered along the chain they refer to.

T3 sequence (chain, as listed by the source limits assumed): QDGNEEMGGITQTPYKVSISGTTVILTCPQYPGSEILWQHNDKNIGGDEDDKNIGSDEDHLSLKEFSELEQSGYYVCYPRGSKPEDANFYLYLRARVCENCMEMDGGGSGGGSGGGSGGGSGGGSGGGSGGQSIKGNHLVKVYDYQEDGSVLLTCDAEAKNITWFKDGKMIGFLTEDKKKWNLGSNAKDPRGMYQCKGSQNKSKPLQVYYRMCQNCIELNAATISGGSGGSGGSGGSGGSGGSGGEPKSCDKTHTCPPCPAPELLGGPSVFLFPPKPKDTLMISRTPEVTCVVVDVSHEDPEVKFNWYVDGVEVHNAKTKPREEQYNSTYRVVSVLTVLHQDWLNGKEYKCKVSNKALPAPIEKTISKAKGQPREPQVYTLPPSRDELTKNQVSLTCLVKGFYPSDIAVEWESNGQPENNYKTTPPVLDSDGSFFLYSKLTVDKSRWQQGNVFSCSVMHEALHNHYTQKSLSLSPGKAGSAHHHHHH
T5 sequence (P01070 25-205): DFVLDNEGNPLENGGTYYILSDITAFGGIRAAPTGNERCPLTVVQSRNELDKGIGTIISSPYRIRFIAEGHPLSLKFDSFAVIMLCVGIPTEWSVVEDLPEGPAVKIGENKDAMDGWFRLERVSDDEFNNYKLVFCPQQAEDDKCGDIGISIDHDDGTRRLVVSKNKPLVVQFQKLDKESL
T2 sequence (P00698 19-147): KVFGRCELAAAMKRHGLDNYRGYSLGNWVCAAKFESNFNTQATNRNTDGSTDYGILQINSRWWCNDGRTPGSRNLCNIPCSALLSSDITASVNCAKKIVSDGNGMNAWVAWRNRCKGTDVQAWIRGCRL
T4 sequence (Q9NZQ7 other isoform, or with tags, fused parts or gaps limits assumed): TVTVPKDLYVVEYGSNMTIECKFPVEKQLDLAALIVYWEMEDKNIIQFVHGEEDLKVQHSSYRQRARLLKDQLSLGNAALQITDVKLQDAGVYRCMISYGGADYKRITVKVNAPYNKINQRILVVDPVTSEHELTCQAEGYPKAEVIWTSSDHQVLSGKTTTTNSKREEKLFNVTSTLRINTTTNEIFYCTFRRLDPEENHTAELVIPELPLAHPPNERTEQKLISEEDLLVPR

B1: B7H6#12/CD3#1 (bispecific antibody, human IgG1, kappa, lambda, L234A L235A)
chain 1: DIQMTQSPSSLSASVGDRVTITCKASQNVGKYVAWYQQKPGKAPKSLIYSASNRYDGVPSRFSGSGSGTDFTLTISSLQPEDFTTYYCQQYISYPLTFGAGTKLEIKRTVAAPSVFIFPPSDEQLKSGTASVVCLLNNFYPREAKVQWKVDNALQSGNSQESVTEQDSKDSTYSLSSTLTLSKADYEKHKVYACEVTHQGLSSPVTKSFNRGECGGGGSEGKSSGSGSESKSTEGKSSGSGSESKSTGGGGSQVQLVQSGAEVKKPGASVKVSCKASGYTFTNYWMNWVKQAPGQGLEWMGGIYLNGDSTDYNEKFKGKATMTVDTSTSTVYMELSSLRSEDTAVYYCTRRGDYFGDFWGQGTLVTVSSASTKGPSVFPLAPSSKSTSGGTAALGCLVKDYFPEPVTVSWNSGALTSGVHTFPAVLQSSGLYSLSSVVTVPSSSLGTQTYICNVNHKPSNTKVDKRVEPKSCDKTHTCPPCPAPEAAGGPSVFLFPPKPKDTLMISRTPEVTCVVVDVSHEDPEVKFNWYVDGVEVHNAKTKPREEQYNSTYRVVSVLTVLHQDWLNGKEYKCKVSNKALPAPIEKTISKAKGQPREPQVYTLPPSREEMTKNQVSLWCLVKGFYPSDIAVEWESNGQPENNYKTTPPVLDSDGSFFLYSKLTVDKSRWQQGNVFSCSVMHEALHNHYTQKSLSLSPG
chain 2: EAVVTQEPSLTVSPGGTVTLTCRSSTGAVTTSNYANWVQEKPGQLPRGLIGGTNKRAPWVPARFSGSLLGGKAALTLSGAQPEDEAEYFCALWYSNLWVFGGGTKLTVLGQPKAAPSVTLFPPSSEELQANKATLVCLISDFYPGAVKVAWKADGSPVNTGVETTTPSKQSNNKYAASSYLSLTPEQWKSHRSYSCQVTHEGSTVEKTVAPAECSGGGGSEGKSSGSGSESKSTEGKSSGSGSESKSTGGGGSEVQLVESGGGLVQPGGSLKLSCAASGFTFNTYAMNWVRQAPGKGLEWVARIRSKYNNYATYYADSVKDRFTISRDDSKNTAYLQMNNLKTEDTAVYYCVRHGNFGNSYVSWFAYWGQGTLVTVSAASTKGPSVFPLAPSSKSTSGGTAALGCLVKDYFPEPVTVSWNSGALTSGVHTFPAVLQSSGLYSLSSVVTVPSSSLGTQTYICNVNHKPSNTKVDKRVEPKSCDKTHTCPPCPAPEAAGGPSVFLFPPKPKDTLMISRTPEVTCVVVDVSHEDPEVKFNWYVDGVEVHNAKTKPREEQYNSTYRVVSVLTVLHQDWLNGKEYKCKVSNKALPAPIEKTISKAKGQPREPQVYTLPPSREEMTKNQVSLSCAVKGFYPSDIAVEWESNGQPENNYKTTPPVLDSDGSFFLVSKLTVDKSRWQQGNVFSCSVMHEALHNRFTQKSLSLSPG
notes: scFab-Fc heterodimer, one B7H6 chain and one CD3 chain
Take B1: the “cy/hu B7-H6” value with Cyno B7H6-His [1] was found to be 2.1. Further, the “Non-specific binding (RU)” value was determined as 9.2 RU in experiment [2] and 35.4 RU in experiment [4]. The values for the Kd with Human CD3 E+G HuFc-6xHis and with Cyno B7H6-His [3] were 3.6 nM and 2.3 nM, respectively. For the same molecule, the binding result with Human B7H1 is on record as “no binding (tested: 1 µM)”.

B2: B7H6#20/CD3#1 (bispecific antibody, human IgG1, kappa, lambda, L234A L235A)
chain 1: B1 chain 1 with G57A, N283S, N306S
chain 2: B1 chain 2
notes: as for B1
With B2, the “cy/hu B7-H6” value with Cyno B7H6-His [1] worked out at 4.6. The “Non-specific binding (RU)” value came to 9.8 RU in experiment [2] and 48.4 RU in experiment [4]. Moreover, the Kd with Human CD3 E+G HuFc-6xHis amounted to 4 nM; with Cyno B7H6-His [3], 4.9 nM. For the same molecule, the binding result with Human B7H1 is “no binding (tested: 1 µM)”.

B3: B7H6#15/CD3#1 (bispecific antibody, human IgG1, kappa, lambda, L234A L235A)
chain 1: B1 chain 1 with V289M, K290R, N306S, K319R, A320V
chain 2: B1 chain 2
notes: as for B1
For B3, the “cy/hu B7-H6” value with Cyno B7H6-His [1] turned out to be 2.8. Moreover, the “Non-specific binding (RU)” value is 7.2 RU in experiment [2] and 32.8 RU in experiment [4]. Moreover, the Kd in the experiment with Human CD3 E+G HuFc-6xHis worked out at 3.8 nM; with Cyno B7H6-His [3], 2.2 nM. Further, the binding result with Human B7H1 is “no binding (tested: 1 µM)”.

B4: B7H6#16/CD3#1 (bispecific antibody, human IgG1, kappa, lambda, L234A L235A)
chain 1: B1 chain 1 with N283S, V289M, K290R, N306S, D308E, K319R, A320V
chain 2: B1 chain 2
notes: as for B1
Take B4: the “cy/hu B7-H6” value with Cyno B7H6-His [1] was found to be 2.3. The “Non-specific binding (RU)” value in experiment [2] amounted to 8.2 RU; in experiment [4], 42.6 RU. Further, the Kd in the experiment with Human CD3 E+G HuFc-6xHis stood at 3.7 nM; in the experiment with Cyno B7H6-His [3] it was 7.2 nM. The binding result with Human B7H1 was “no binding (tested: 1 µM)”.

B5: B7H6#19/CD3#1 (bispecific antibody, human IgG1, kappa, lambda, L234A L235A)
chain 1: B1 chain 1 with N283S, N306S, D308E
chain 2: B1 chain 2
notes: as for B1
For B5, in the experiment with Cyno B7H6-His [1], the “cy/hu B7-H6” value came out at 3.1. Moreover, the “Non-specific binding (RU)” value in experiment [2] came to 8.2 RU; in experiment [4], 40.3 RU. Besides, the Kd with Human CD3 E+G HuFc-6xHis was determined as 4 nM; in the experiment with Cyno B7H6-His [3], 5.1 nM. For the same molecule, in the experiment with Human B7H1, the binding result was “no binding (tested: 1 µM)”.

B6: B7H6#13/CD3#1 (bispecific antibody, human IgG1, kappa, lambda, L234A L235A)
chain 1: B1 chain 1 with N283S, V289M, K319R, A320V
chain 2: B1 chain 2
notes: as for B1
For the molecule B6, the “cy/hu B7-H6” value in the experiment with Cyno B7H6-His [1] worked out at 1.5. In addition, the “Non-specific binding (RU)” value was 7.2 RU in experiment [2] and 30.6 RU in experiment [4]. Further, the Kd turned out to be 4.1 nM with Human CD3 E+G HuFc-6xHis and 4.6 nM with Cyno B7H6-His [3]. In addition, the binding result with Human B7H1 is on record as “no binding (tested: 1 µM)”.

B7: B7H6#14/CD3#1 (bispecific antibody, human IgG1, kappa, lambda, L234A L235A)
chain 1: B1 chain 1 with T84A, Y87F, V289M, M300I, A320V
chain 2: B1 chain 2
notes: as for B1
In the case of B7, in the experiment with Cyno B7H6-His [1], the “cy/hu B7-H6” value was 5.9. The “Non-specific binding (RU)” value came to 8.1 RU in experiment [2] and 32.7 RU in experiment [4]. Also, the Kd with Human CD3 E+G HuFc-6xHis is 4.2 nM; with Cyno B7H6-His [3], 0.6 nM. Further, the binding result with Human B7H1 is on record as “no binding (tested: 1 µM)”.

B8: B7H6#18/CD3#1 (bispecific antibody, human IgG1, kappa, lambda, L234A L235A)
chain 1: B1 chain 1 with G57A, N283S, V289M, K290R, N306S, K319R, A320V
chain 2: B1 chain 2
notes: as for B1
Take B8: the “cy/hu B7-H6” value with Cyno B7H6-His [1] was found to be 2.3. The “Non-specific binding (RU)” value was found to be 6.6 RU in experiment [2] and 32.8 RU in experiment [4]. The Kd with Human CD3 E+G HuFc-6xHis came out at 3.9 nM; with Cyno B7H6-His [3], 3.3 nM. For the same molecule, in the experiment with Human B7H1, the binding result is on record as “no binding (tested: 1 µM)”.

The record behind these values is patent US20210107983A1 (Boehringer Ingelheim, published 2021).
